From the supplement of paper PMC7877785
± gives the uncertainty stated by the source.

Assay: self-splicing fitness, log relative to wild type (ln ratio); higher = more splicing; Tetrahymena group I intron in knt gene, E. coli kanamycin selection, DiMSum; sequences stand for … in CUCUCU…GGAGGGAAAAGUUAUCAGGCAUGCACCUGGUAGCUAGUCUUUAAACCAAUAGAUUGCAUCGGUUUAAAAGGCAAGACCGUCAAAUUGCGGGAAAGGGGUCAACAGCCGUUCAGUACCAAGUCUCAGGGGAAACUUUGAGAUGGCCUUGCAAAGGGUAUGGUAAUAAGCUGACGGACAUGGUCCUAACCACGCAGCCAAGUCCUAAGUCAACAGAUCUUCUGUUGAUAUGGAUGCAGUUCACAGACUAAAUGUCGGUCGGGGAAGAUGUAUUCUUCUCAUAAGAUAUAGUCGGACCUCUCCUUAAUGGGAGCUAGCGGAUGAAGUGAUGCAACACUGGAGCCGCUGGGAACUAAUUUGUAUGCGAAAGUAUAUUGAUUAGUUUUGGAGUACUCGUGGUCG
Outline: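 Fitness was computed with DiMSum as the error-weighted combination of replicate fold changes, kanamycin versus none, each normalised to wild type. The library randomised all eight intron nucleotides of the P1ex region, with the intron placed in the knt kanamycin-resistance gene on pET-22b(+) in E. coli BL21(DE3). Six replicate transformations were grown overnight at 37°C or 30°C on LB agar with or without 25 μg/mL kanamycin, plus 100 μg/mL carbenicillin, 50 μM IPTG and 0.2% rhamnose. Pooled colonies were amplicon-sequenced on an Illumina HiSeq 2500.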

Sequence	self-splicing fitness (ln) (30 °C)	self-splicing fitness (ln) (37 °C)
GUGGAGCAAUAUUACGGCCG	-3.44 ± 0.28	-2.03 ± 0.22
GCUGAGCAAUAUUACGCAAA	-4.1 ± 0.39	-1.55 ± 0.29
UUGAAGCAAUAUUACGACGC	-0.722 ± 0.11	0.156 ± 0.14
UCACAGCAAUAUUACGACCA	-1.89 ± 0.21	0.0251 ± 0.21
ACGCAGCAAUAUUACGAGAA	-1.64 ± 0.26	-2.83 ± 0.25
UCUAAGCAAUAUUACGGUGA	-0.587 ± 0.099	-0.245 ± 0.1
AUGUAGCAAUAUUACGGACC	-1.05 ± 0.2	-0.411 ± 0.21
GUCGAGCAAUAUUACGUGCC	-2.63 ± 0.29	–
GUUAAGCAAUAUUACGGUCU	-2.3 ± 0.14	-0.0437 ± 0.12
GAAGAGCAAUAUUACGCAAA	–	-2.69 ± 0.33
AUGUAGCAAUAUUACGAGAG	-4.62 ± 0.39	-2.71 ± 0.22
GCGAAGCAAUAUUACGACUG	-1.72 ± 0.14	-0.66 ± 0.14
GAUAAGCAAUAUUACGGACC	-1.24 ± 0.25	-1.4 ± 0.28
CUAAAGCAAUAUUACGGUUA	-3.78 ± 0.33	-2.72 ± 0.25
UGGCAGCAAUAUUACGACGG	-0.817 ± 0.15	0.837 ± 0.17
GUCCAGCAAUAUUACGAUUU	-0.323 ± 0.064	0.653 ± 0.067
CAUUAGCAAUAUUACGGGUC	-3.51 ± 0.29	-1.5 ± 0.23
CGAUAGCAAUAUUACGAGCA	-3.83 ± 0.26	-1.86 ± 0.17
UUAGAGCAAUAUUACGUACC	–	-0.711 ± 0.48
AGCGAGCAAUAUUACGUGCU	-4.05 ± 0.29	-1.41 ± 0.23
GCGGAGCAAUAUUACGGUUU	–	-2.53 ± 0.39
UACGAGCAAUAUUACGCACA	-3.08 ± 0.26	-1.29 ± 0.21
AAUUAGCAAUAUUACGUGUC	-3.59 ± 0.29	-1.79 ± 0.2
UUGAAGCAAUAUUACGUACG	-0.166 ± 0.053	0.427 ± 0.074
GCAAAGCAAUAUUACGAUGA	-0.578 ± 0.076	0.353 ± 0.096

Sequence	self-splicing fitness (ln) (30 °C)	self-splicing fitness (ln) (37 °C)
ACACAGCAAUAUUACGCUCA	-0.416 ± 0.087	-0.203 ± 0.093
UGAAAGCAAUAUUACGGGCA	-0.0393 ± 0.081	0.386 ± 0.092
AGACAGCAAUAUUACGGGGU	-3.82 ± 0.17	-2.25 ± 0.15
GCUAAGCAAUAUUACGCUAU	-1.91 ± 0.14	-2.08 ± 0.17
CAUCAGCAAUAUUACGAUAA	-1.46 ± 0.092	-0.079 ± 0.088
ACCGAGCAAUAUUACGCUAA	-3.28 ± 0.32	-2.05 ± 0.28
CUUGAGCAAUAUUACGCGCU	-2.45 ± 0.29	-1.22 ± 0.39
AAUAAGCAAUAUUACGGGAG	-2.91 ± 0.19	-2.14 ± 0.14
AUACAGCAAUAUUACGGAAA	-3.24 ± 0.2	-2.16 ± 0.17
GGCCAGCAAUAUUACGACGC	-1.02 ± 0.15	0.369 ± 0.17
UUCCAGCAAUAUUACGAGAC	-2.82 ± 0.27	-1.79 ± 0.32
UACAAGCAAUAUUACGGCCG	-0.0815 ± 0.085	0.427 ± 0.13
UAUGAGCAAUAUUACGGCGA	-0.815 ± 0.17	-0.45 ± 0.16
ACAUAGCAAUAUUACGAUAC	-3.6 ± 0.23	-2.2 ± 0.25
CAGCAGCAAUAUUACGCAUU	-3.68 ± 0.15	-0.546 ± 0.089
GGCUAGCAAUAUUACGCGCG	-0.69 ± 0.14	0.174 ± 0.17
CUCGAGCAAUAUUACGGGAG	–	-1.11 ± 0.22
UCCGAGCAAUAUUACGACGC	–	-1.61 ± 0.42
GAUAAGCAAUAUUACGAGGA	-2.86 ± 0.29	-2.12 ± 0.27
GCGCAGCAAUAUUACGGAGU	-2 ± 0.11	-0.744 ± 0.13
GCGCAGCAAUAUUACGGCGU	-3.18 ± 0.33	–
ACGGAGCAAUAUUACGGCGG	-1.4 ± 0.12	-0.413 ± 0.13
CGGUAGCAAUAUUACGUCCC	-0.348 ± 0.48	0.985 ± 0.48
GGUAAGCAAUAUUACGGUUC	-0.52 ± 0.16	-0.621 ± 0.17
CAGUAGCAAUAUUACGUUUG	-1.35 ± 0.08	-0.625 ± 0.11
